In the data set the test system is Escherichia coli TOP10. Kind of data set: shrunken log2 fold change of peptide-encoding DNA abundance (4.5 h post-induction vs induction); higher = less antimicrobial activity (less host growth inhibition). To be noted: time post-induction: 4.5 h; library: site-saturation at positions 5, 18, 19, 20.
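Further: peptides expressed intracellularly from a pBAD plasmid library in pooled LB shake-flask culture, induced with 0.3% L-arabinose, DNA abundance read by NGS, three biological replicates, DESeq2 with apeglm shrinkage.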

On to RRIRVRPPRLPRPRPRPREGPRP, for which the “shrunken log2 fold change” value amounted to 0.307. As for RRIRARPPRLPRPRPRPMVIPRP, the “shrunken log2 fold change” value was determined as 0.0235. RRIRHRPPRLPRPRPRPPSEPRP: the “shrunken log2 fold change” value is -0.0921. Then RRIRPRPPRLPRPRPRPSGTPRP, with 0.669; and RRIRLRPPRLPRPRPRPCLEPRP, with -0.052; and RRIRKRPPRLPRPRPRPKIMPRP, with 0.193. RRIRKRPPRLPRPRPRPICWPRP: the “shrunken log2 fold change” value was 0.239. Turning to RRIRTRPPRLPRPRPRPMKDPRP, the “shrunken log2 fold change” value is -0.303.

For RRIRLRPPRLPRPRPRPYFNPRP, the “shrunken log2 fold change” value was -1.13. As to RRIRNRPPRLPRPRPRPGAEPRP, the “shrunken log2 fold change” value was 0.374.

Turning to RRIRPRPPRLPRPRPRPNMIPRP, the “shrunken log2 fold change” value is -0.531. With RRIRSRPPRLPRPRPRPPLRPRP, the “shrunken log2 fold change” value was 0.249. For the sequence RRIRVRPPRLPRPRPRPLGSPRP, the “shrunken log2 fold change” value is -0.115. Then RRIRPRPPRLPRPRPRPVPIPRP, with 0.0844; and RRIRCRPPRLPRPRPRPVDVPRP, with -0.375; and RRIRIRPPRLPRPRPRPQAAPRP, with -0.115. In the case of RRIRKRPPRLPRPRPRPCHEPRP, the “shrunken log2 fold change” value stood at 0.00408. On to RRIRLRPPRLPRPRPRPYECPRP, for which the “shrunken log2 fold change” value is -0.352. Regarding RRIRRRPPRLPRPRPRPHTRPRP, the “shrunken log2 fold change” value turned out to be 0.145. In the case of RRIRMRPPRLPRPRPRPPQWPRP, the “shrunken log2 fold change” value worked out at 0.982. Consider RRIRCRPPRLPRPRPRPDTQPRP, for which the “shrunken log2 fold change” value is -0.239. For RRIRDRPPRLPRPRPRPCWAPRP the value was 0.125. RRIRRRPPRLPRPRPRPERTPRP: the “shrunken log2 fold change” value stood at 0.232.

Regarding RRIRWRPPRLPRPRPRPFNDPRP, the “shrunken log2 fold change” value is -0.153. As for RRIRQRPPRLPRPRPRPGKMPRP, the “shrunken log2 fold change” value stood at 0.0812.

Turning to RRIRTRPPRLPRPRPRPLIEPRP, the “shrunken log2 fold change” value was -0.325.

For RRIRARPPRLPRPRPRPFLIPRP, the “shrunken log2 fold change” value is -0.367. As for RRIRERPPRLPRPRPRPWNWPRP, the “shrunken log2 fold change” value was -0.131. Regarding RRIRWRPPRLPRPRPRPEHWPRP, the “shrunken log2 fold change” value worked out at 0.83. Regarding RRIRTRPPRLPRPRPRPNTEPRP, the “shrunken log2 fold change” value was -0.011. For the sequence RRIRQRPPRLPRPRPRPKDTPRP, the “shrunken log2 fold change” value is -0.0272. Take RRIRSRPPRLPRPRPRPMLAPRP: the “shrunken log2 fold change” value stood at 0.244. In the case of RRIRYRPPRLPRPRPRPMHGPRP, the “shrunken log2 fold change” value was 0.00652. As to RRIRLRPPRLPRPRPRPHKLPRP, the “shrunken log2 fold change” value is -0.1. Then RRIRMRPPRLPRPRPRPMCVPRP, with 1.45; and RRIRMRPPRLPRPRPRPKAWPRP, with 0.0535. On to RRIRDRPPRLPRPRPRPSNLPRP, for which the “shrunken log2 fold change” value is -0.0257. In the case of RRIRVRPPRLPRPRPRPHADPRP, the “shrunken log2 fold change” value is 0.00219.

Take RRIRRRPPRLPRPRPRPPVYPRP: the “shrunken log2 fold change” value amounted to 0.32. Then RRIRQRPPRLPRPRPRPPGNPRP, with 0.246; and RRIRQRPPRLPRPRPRPPEWPRP, with -0.0462. RRIRERPPRLPRPRPRPAMAPRP: the “shrunken log2 fold change” value stood at 0.631. Turning to RRIRDRPPRLPRPRPRPHQFPRP, the “shrunken log2 fold change” value is -0.282.

Consider RRIRWRPPRLPRPRPRPLGRPRP, for which the “shrunken log2 fold change” value was determined as 0.424. As to RRIRARPPRLPRPRPRPYYVPRP, the “shrunken log2 fold change” value was -0.169. For RRIRGRPPRLPRPRPRPMAFPRP the value was 0.572; for RRIRYRPPRLPRPRPRPYQMPRP, -0.344; for RRIRQRPPRLPRPRPRPPFVPRP, 0.0462. Regarding RRIRHRPPRLPRPRPRPSHKPRP, the “shrunken log2 fold change” value is -0.718. As for RRIRPRPPRLPRPRPRPMDAPRP, the “shrunken log2 fold change” value is -0.128. As for RRIRERPPRLPRPRPRPCSLPRP, the “shrunken log2 fold change” value was -0.264.

For RRIRDRPPRLPRPRPRPWMRPRP, the “shrunken log2 fold change” value is 0.013.

As for RRIRHRPPRLPRPRPRPVTTPRP, the “shrunken log2 fold change” value amounted to 0.0639. As for RRIRLRPPRLPRPRPRPVCQPRP, the “shrunken log2 fold change” value came out at 0.155.

For the sequence RRIRKRPPRLPRPRPRPCWDPRP, the “shrunken log2 fold change” value is 0.0719. RRIRLRPPRLPRPRPRPFNFPRP: the “shrunken log2 fold change” value is -0.855. Turning to RRIRCRPPRLPRPRPRPFMFPRP, the “shrunken log2 fold change” value was -0.421. As for RRIRHRPPRLPRPRPRPTTMPRP, the “shrunken log2 fold change” value was -0.261.

Consider RRIRCRPPRLPRPRPRPNICPRP, for which the “shrunken log2 fold change” value was -0.488.

In the case of RRIRIRPPRLPRPRPRPHLTPRP, the “shrunken log2 fold change” value was -0.379. Take RRIRLRPPRLPRPRPRPIKPPRP: the “shrunken log2 fold change” value is 0.0261. Regarding RRIRIRPPRLPRPRPRPCSPPRP, the “shrunken log2 fold change” value is -0.271.

Regarding RRIRARPPRLPRPRPRPFRAPRP, the “shrunken log2 fold change” value was found to be 0.0497. As to RRIRQRPPRLPRPRPRPTVQPRP, the “shrunken log2 fold change” value is 0.226. In the case of RRIRSRPPRLPRPRPRPECHPRP, the “shrunken log2 fold change” value worked out at 0.411. On to RRIRTRPPRLPRPRPRPNPIPRP, for which the “shrunken log2 fold change” value was -0.157. Turning to RRIRIRPPRLPRPRPRPGYLPRP, the “shrunken log2 fold change” value was 2.69.

Take RRIRGRPPRLPRPRPRPWSYPRP: the “shrunken log2 fold change” value is -0.157. As to RRIRERPPRLPRPRPRPFKEPRP, the “shrunken log2 fold change” value is -0.346. As to RRIRVRPPRLPRPRPRPCEFPRP, the “shrunken log2 fold change” value is -0.242. For the sequence RRIRFRPPRLPRPRPRPGMGPRP, the “shrunken log2 fold change” value was 0.102. Regarding RRIRKRPPRLPRPRPRPPFIPRP, the “shrunken log2 fold change” value is -0.00551. Then RRIRLRPPRLPRPRPRPSTIPRP, with -0.246; and RRIRKRPPRLPRPRPRPHPAPRP, with 0.429. In the case of RRIRWRPPRLPRPRPRPSDAPRP, the “shrunken log2 fold change” value was 0.191.

Regarding RRIRKRPPRLPRPRPRPRKQPRP, the “shrunken log2 fold change” value was 0.224. Turning to RRIRPRPPRLPRPRPRPMPDPRP, the “shrunken log2 fold change” value was found to be 0.163. Turning to RRIRKRPPRLPRPRPRPETPPRP, the “shrunken log2 fold change” value turned out to be 1.89. On to RRIRRRPPRLPRPRPRPQQDPRP, for which the “shrunken log2 fold change” value is 0.0793.

Take RRIRLRPPRLPRPRPRPLDGPRP: the “shrunken log2 fold change” value was -0.0562. For the sequence RRIRYRPPRLPRPRPRPYIVPRP, the “shrunken log2 fold change” value is -0.496. For the sequence RRIRDRPPRLPRPRPRPKHWPRP, the “shrunken log2 fold change” value was determined as 0.723. Turning to RRIRLRPPRLPRPRPRPPYYPRP, the “shrunken log2 fold change” value is -0.292.

As for RRIRWRPPRLPRPRPRPRNTPRP, the “shrunken log2 fold change” value is -0.0542. Take RRIRRRPPRLPRPRPRPHRNPRP: the “shrunken log2 fold change” value was -0.317. With RRIRMRPPRLPRPRPRPGQQPRP, the “shrunken log2 fold change” value stood at 1.34. For RRIRVRPPRLPRPRPRPEYSPRP the value was -0.273; for RRIRRRPPRLPRPRPRPSRMPRP, 0.0176.

Regarding RRIRDRPPRLPRPRPRPGVLPRP, the “shrunken log2 fold change” value is -0.0992. As to RRIRERPPRLPRPRPRPEQLPRP, the “shrunken log2 fold change” value came out at 0.00434. For the sequence RRIRNRPPRLPRPRPRPIVIPRP, the “shrunken log2 fold change” value was -0.29. For RRIRTRPPRLPRPRPRPNVHPRP the value was -0.637; for RRIRERPPRLPRPRPRPQNCPRP, -0.0646. For RRIRRRPPRLPRPRPRPYPIPRP, the “shrunken log2 fold change” value is -0.269. Consider RRIRCRPPRLPRPRPRPKIDPRP, for which the “shrunken log2 fold change” value was -0.0573. Then RRIRDRPPRLPRPRPRPPTAPRP, with 0.0444; and RRIRMRPPRLPRPRPRPMYLPRP, with -0.0638; and RRIRWRPPRLPRPRPRPWMIPRP, with -0.0414.

For RRIRKRPPRLPRPRPRPKSIPRP, the “shrunken log2 fold change” value is -0.0265. In the case of RRIRERPPRLPRPRPRPGKAPRP, the “shrunken log2 fold change” value was -0.0498. For the sequence RRIRIRPPRLPRPRPRPHWHPRP, the “shrunken log2 fold change” value is -0.153.

On to RRIRKRPPRLPRPRPRPVMEPRP, for which the “shrunken log2 fold change” value is 0.581. For RRIRRRPPRLPRPRPRPPHWPRP, the “shrunken log2 fold change” value was 0.932. As for RRIRCRPPRLPRPRPRPLAPPRP, the “shrunken log2 fold change” value was 0.268. In the case of RRIRRRPPRLPRPRPRPMAAPRP, the “shrunken log2 fold change” value worked out at 1.15.

RRIRSRPPRLPRPRPRPHQVPRP: the “shrunken log2 fold change” value is -0.0813. Take RRIRSRPPRLPRPRPRPIMAPRP: the “shrunken log2 fold change” value is 0.163. For RRIRQRPPRLPRPRPRPQNQPRP the value was -0.17; for RRIRWRPPRLPRPRPRPRVNPRP, 0.478.

Take RRIRARPPRLPRPRPRPVSTPRP: the “shrunken log2 fold change” value was -0.0272. In the case of RRIRIRPPRLPRPRPRPNPRPRP, the “shrunken log2 fold change” value is -0.225. For RRIRMRPPRLPRPRPRPKWYPRP the value was -0.171. Turning to RRIRWRPPRLPRPRPRPFMDPRP, the “shrunken log2 fold change” value was -0.41. On to RRIRGRPPRLPRPRPRPYWEPRP, for which the “shrunken log2 fold change” value is -0.0842.

For RRIRWRPPRLPRPRPRPVRFPRP, the “shrunken log2 fold change” value was 0.0694. Regarding RRIRPRPPRLPRPRPRPHCFPRP, the “shrunken log2 fold change” value was -0.497. As to RRIRCRPPRLPRPRPRPHQYPRP, the “shrunken log2 fold change” value is -0.05. RRIRVRPPRLPRPRPRPWYWPRP: the “shrunken log2 fold change” value is -0.332.

With RRIRKRPPRLPRPRPRPPDSPRP, the “shrunken log2 fold change” value was 0.189.

In the case of RRIRERPPRLPRPRPRPFIEPRP, the “shrunken log2 fold change” value was -0.59. In the case of RRIRGRPPRLPRPRPRPGKDPRP, the “shrunken log2 fold change” value was 0.18.

Take RRIRHRPPRLPRPRPRPRETPRP: the “shrunken log2 fold change” value is 0.0714. Then RRIRTRPPRLPRPRPRPKLSPRP, with 0.197; and RRIRTRPPRLPRPRPRPFKFPRP, with -0.0637. With RRIRPRPPRLPRPRPRPSWAPRP, the “shrunken log2 fold change” value was found to be 0.0666.

(Values after the supplement of paper PMC9112550, “Optimization of the antimicrobial peptide Bac7 by deep mutational scanning” (BMC Biology, 2022).)
